These results are taken from patent US20190300612A1 (ELANCO US, published 2019).

Assay [1] addresses T1, cPDGFRA extracellular domain (ECD)-Fc fusion protein (dog).
T1 construct: extracellular domain; also called cPDGFRA-Fc; cPDGFRA-ECD-Xa-Fc
The experiment in a line: comparison of the KD values of Table 1.

Assay [2] deals with T1, cPDGFRA extracellular domain (ECD)-Fc …. The experiment in a line: kinetic binding to PDGFRA-Fc, antibody 30 nM; method not named for Table 1.
For the next assay, the target named is T2, human PDGFRA-Fc (human, UniProt P16234 24-524, limits assumed).
T2 construct: also called PDGFRA-Fc (Human); not shown: Fc
The assay is described as above.

In the next assay the target is human PDGFRA (human, UniProt P16234 24-524, limits assumed). The experiment in a line: binding ELISA on coated human PDGFRA; parental EC50 divided by variant EC50; pool evaluation.
In assay [3] the target is T1, cPDGFRA extracellular domain (ECD)-Fc …. The assay can be described thus: titration binding ELISA on coated cPDGFRA-Fc; parental EC50 divided by variant EC50; pool evaluation.
In assay [4] the target is T3, canine platelet derived growth factor receptor alpha (cPDGFRA) (dog, UniProt A0A8I3NAN8 49-553, biotinylated (sites not given) in the blocking ELISA).
T3 construct: The construct is not described; also called biotinylated-cPDGFRA
The experiment in a line: blocking ELISA: antibody with biotinylated cPDGFRA on coated canine PDGFAA; parental IC50 divided by variant IC50; pool evaluation. (In an ELISA, binding on a coated surface is turned into a signal by an enzyme label.)

Assay [5] deals with T1, cPDGFRA extracellular domain (ECD)-Fc …. The assay can be described thus: binding ELISA on coated cPDGFRA-Fc; unit from paragraph 44.
For assay [6] the target is unchanged. The assay can be described thus: SPR, BIAcore T200, cPDGFRA-ECD-Xa-Fc immobilized, antibody injected, 25 C. Here is the method:
The binding kinetics of selected K9-6N6.1 variants to cPDGFRA were measured using a BIAcore T200 instrument (BIAcore, Inc., Piscataway, N.J.). Briefly, a cPDGFRA extracellular domain (ECD)-Fc fusion protein was immobilized on a sensor chip and antibody was injected at various concentrations. Sensograms were obtained at each concentration and evaluated using the BIA Evaluation 3.0 program to determine rate constants. The affinity constant (KD) was calculated from the ratio of rate constants Koff/Kon. The evaluation was performed at 25° C.
(In general: Surface plasmon resonance follows binding to a sensor surface in real time, without labels.)

In assay [7] the target is T3, canine platelet derived growth factor …. The assay can be described thus: blocking ELISA: antibody with biotinylated cPDGFRA on coated canine PDGFAA; unit from paragraph 44.

T2 sequence (P16234 24-524 limits assumed): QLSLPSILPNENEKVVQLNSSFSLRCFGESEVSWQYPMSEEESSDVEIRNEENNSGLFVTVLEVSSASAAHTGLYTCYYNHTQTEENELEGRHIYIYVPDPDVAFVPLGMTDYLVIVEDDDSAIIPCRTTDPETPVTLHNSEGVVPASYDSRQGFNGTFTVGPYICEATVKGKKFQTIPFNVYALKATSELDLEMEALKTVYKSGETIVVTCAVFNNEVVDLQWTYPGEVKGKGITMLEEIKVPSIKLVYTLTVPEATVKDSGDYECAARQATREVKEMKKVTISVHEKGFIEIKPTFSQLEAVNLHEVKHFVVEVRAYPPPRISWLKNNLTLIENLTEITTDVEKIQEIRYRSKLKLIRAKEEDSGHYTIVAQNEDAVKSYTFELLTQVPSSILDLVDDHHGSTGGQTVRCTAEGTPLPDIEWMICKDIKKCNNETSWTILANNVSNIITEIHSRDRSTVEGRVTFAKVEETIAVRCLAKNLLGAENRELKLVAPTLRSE
Sequence of human PDGFRA (P16234 24-524 limits assumed): as above

B1: Olaratumab (antibody, human IgG1, kappa)
heavy: not shown
light: not shown
notes: Fully human IgG1 monoclonal antibody; also called IMC-3G3; human Olaratumab
Consider B1, for which, in assay [1], the “fold lower affinity than Olaratumab binding to human PDGFRA” value is ~10 fold. In assay [2], the dissociation constant Kd – broadly, the concentration at which binding is half-saturated – turned out to be 3.44 nM; the off-rate constant (koff) (in general, the rate constant with which the complex falls apart) is 0.00294 s⁻¹; the association rate constant (kon) (in general, the rate constant with which the complex forms) turned out to be 856000 M⁻¹ s⁻¹. Further, in the assay with human PDGFRA-Fc, the Kd is 0.307 nM, the off-rate constant (koff) is 0.000248 s⁻¹ and the kon was found to be 808000 M⁻¹ s⁻¹.

B2: K9-6N6.1 variant LC-S28A (clone 2A2) (antibody, V domains shown)
VH: QLQLQESGPGLVKPSETLSLTCTVSGGSINSSSYYWGWLRQSPGKGLEWIGSFFYTGSTYYNPSLRSRLTISVDTSKNQFSLMLSSVTAADTAVYYCARQSTYYYGSGNYYGWFDRWDQGTLVTVSS
VL: EIVLTQSPATLSLSPGERATLSCRASQAVSSYLAWYQQKPGQAPRLLIYDASNRATGIPARFSGSGSGTDFTLTISSLEPEDFAVYYCQQRSNWPPAFGQGTKVEIKR
Turning to B2, the “Human PDGFRA Binding EC50 improvement (fold) over parental K9-6N6.1” value with human PDGFRA stood at 1.83 fold. The “cPDGFRA Binding EC50 improvement (fold) over parental K9-6N6.1” value in assay [3] turned out to be 1.43 fold. Besides, the “cPDGFRA Blocking IC50 improvement (fold) over parental K9-6N6.1” value in [4] came out at 13.4 fold.

B3: K9-6N6.1 (antibody)
heavy: QLQLQESGPGLVKPSETLSLTCTVSGGSINSSSYYWGWLRQSPGKGLEWIGSFFYTGSTYYNPSLRSRLTISVDTSKNQFSLMLSSVTAADTAVYYCARQSTYYYGSGNYYGWFDRWDQGTLVTVSSASTTAPSVFPLAPSCGSTSGSTVALACLVSGYFPEPVTVSWNSGSLTSGVHTFPSVLQSSGLYSLSSMVTVPSSRWPSETFTCNVAHPASKTKVDKPVPKRENGRVPRPPDCPKCPAPEMLGGPSVFIFPPKPKDTLLIARTPEVTCVVVDLDPEDPEVQISWFVDGKQMQTAKTQPREEQFNGTYRVVSVLPIGHQDWLKGKQFTCKVNNKALPSPIERTISKARGQAHQPSVYVLPPSREELSKNTVSLTCLIKDFFPPDIDVEWQSNGQQEPESKYRTTPPQLDEDGSYFLYSKLSVDKSRWQRGDTFICAVMHEALHNHYTQESLSHSPGK
light: EIVLTQSPATLSLSPGERATLSCRASQSVSSYLAWYQQKPGQAPRLLIYDASNRATGIPARFSGSGSGTDFTLTISSLEPEDFAVYYCQQRSNWPPAFGQGTKVEIKRNDAQPAVYLFQPSPDQLHTGSASVVCLLNSFYPKDINVKWKVDGVIQDTGIQESVTEQDKDSTYSLSSTLTMSSTEYLSHELYSCEITHKSLPSTLIKSFQRSECQRVD
notes: Olaratumab HCVR on canine IgB heavy constant region, Olaratumab LCVR on canine kappa constant region; also called parental K9-6N6.1; parent K9-6N6.1
As to B3, the “fold lower affinity than Olaratumab binding to human PDGFRA” value in assay [1] is ~10 fold. For the same molecule, a half-maximal effect in assay [5] (EC50) was put at 0.272 nM. In [6], the “Improvement (fold) of KD over parent K9-6N6.1” value amounted to 1 fold, the Kd is 4.87 nM, the koff was found to be 0.00247 s⁻¹ and the kon was determined as 508000 M⁻¹ s⁻¹. In [2], the equilibrium dissociation constant (Kd) came out at 1.92 nM, the koff worked out at 0.00161 s⁻¹ and the kon stood at 840000 M⁻¹ s⁻¹. The midpoint of inhibition in assay [7], the IC50, lay at 31.5 nM.
